Source: PMC3790826

Columns and labels:
[1] = target: rice RAD51A1 (japonica cultivar Nipponbare), His6 tag removed (Oryza sativa (japonica cultivar Nipponbare)); assay: SEC; Superdex 200 GL 10/300; 70 µg protein incubated 30 min at room temperature without nucleotide (the printed oligomer sizes), with 1 mM ATP (apparent sizes drastically increased) or with 1 mM ADP (no such change); elution in 20 mM HEPES-NaOH pH 7.5, 400 mM NaCl, 0.1 mM EDTA, 2 mM 2-mercaptoethanol, 1 mM MgCl2; apparent molecular sizes
[2] = target: rice RAD51A2 (japonica cultivar Nipponbare), His6 tag removed (Oryza sativa (japonica cultivar Nipponbare)); assay: as above

stoichiometry N [1]	stoichiometry N [2]	Substance
8 -mer		rice RAD51A1 (japonica cultivar Nipponbare), His6 tag removed (natural protein)
	5 -mer	rice RAD51A2 (japonica cultivar Nipponbare), His6 tag removed (natural protein)
